Data: PMC3492748

Tests used:
[1] = target: geminin (Xenopus laevis (endogenous in eggs and embryos)) (UniProt O93352); assay: co-IP
[2] = target: Cdt1 (Xenopus laevis (endogenous in eggs and embryos)) (UniProt Q9I9A7); assay: co-IP

Cdt1 (from UniProt Q9I9A7 1-617) (natural protein)
decline of co-precipitation over 20 minutes after fertilisation [1]: > 50%

geminin (from UniProt O93352 1-219) (natural protein)
decline of co-precipitation over 20 minutes after fertilisation [2]: > 50%
